# PMC8927971
# Tested on: CIZ1 N571ΔPLD2 (Mus musculus)
# Test: EMSA
# Settings: 10 mM Tris-HCl pH 7.5, 30 mM NaCl, 2.5 mM MgCl2, 0.2 mM DTT, 0.1% IGEPAL CA-630, 0.1 mg/ml yeast tRNA, 0.4 U RNaseOUT, 1% glycerol; 30 C 20 min; 0.7% agarose …
row,Substance,K half [nM]
1,Xist repeat A,100
2,Xist repeat E proximal,100
